# In publication PMC10306299:
# T1: CytRN (CytR DNA-binding domain) (Escherichia coli, UniProt P0ACN7 1-66)
# T1 sequence: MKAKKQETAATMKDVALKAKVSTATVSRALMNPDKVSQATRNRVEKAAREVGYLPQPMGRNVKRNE
# Target: T1, CytRN (CytR DNA-binding domain)
# Assay: NMR
binder,measurement,value
udp half-site DNA (dsDNA) DNA 1: ATTTATGCAACGCA DNA 2: TGCGTTGCATAAAT,binding result,binds
